Assay results published in US20250099635A1, “IIMMUNOCONJUGATES COMPRISING KALLIKREIN RELATED PEPTIDASE 2 ANTIGEN BINDING DOMAINS AND THEIR USES” (Janssen Biotech, Inc., priority 2022, published 2025).

Biological target: soluble human kallikrein related peptidase 2 (hK2) protein (human) (UniProt P20151)
Experiment: SPR; antibody captured by anti-Fc antibody, soluble hK2 injected; 1:1 Langmuir fit

Chain of soluble human kallikrein related peptidase 2 (hK2) protein (human) (P20151 19-261): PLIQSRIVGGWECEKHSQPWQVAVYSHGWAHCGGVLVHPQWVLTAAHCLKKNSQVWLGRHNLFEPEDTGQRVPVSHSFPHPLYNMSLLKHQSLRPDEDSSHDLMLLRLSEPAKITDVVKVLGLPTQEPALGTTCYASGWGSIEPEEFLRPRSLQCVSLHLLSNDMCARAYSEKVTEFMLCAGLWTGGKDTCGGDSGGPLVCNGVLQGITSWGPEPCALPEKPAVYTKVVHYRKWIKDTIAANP

Row | Binder | Kd
1 | KL2B359 (scFv-LH-Fc) (Fc fusion, part only; not given: Fc part, part only) scFv, part: EIVLTQSPATLSLSPGERATLSCRASESVEYFGTSLMHWYQQKPGQPPRLLIYAASNVESGIPARFSGSGSGTDFTLTISSVEPEDFAVYFCQQTRKVPYTFGGGTKVEIKGGSEGKSSGSGSESKSTGGSQVQLQESGPGLVKPSQTLSLTCTVSGNSITSDYAWNWIRQFPGKRLEWIGYISYSGSTTYNPSLKSRVTISRDTSKNQFSLKLSSVTAADTAVYYCATGYYYGSGFWGQGTLVTVSS | 0.7 to 1 nM
2 | KL2B413 (scFv-LH-Fc) (Fc fusion, part only; not given: Fc part, part only) scFv, part: EIVLTQSPSFLSASVGDRVTITCRASQGISSYLSWYQQKPGKAPKLLIYATSTLQSGVPSRFSGSGSGTEFTLTISSLQPEDFATYYCQQLNSYPRTFGQGTKVEIKGGSEGKSSGSGSESKSTGGSEVQLVESGGGLVQPGGSLRLSCAASGFTFSSYWMTWVRQAPGKGLEWVANIKQDGSERYYVDSVKGRFTISRDNAKNSLYLQMNSLRAEDTAVYYCARDQNYDILTGHYGMDVWGQGTTVTVSS | 34.3 nM
